The values that follow come from article PMC6894070, “The Plasmodium falciparum Hsp70-x chaperone assists the heat stress response of the malaria parasite” (The FASEB Journal, 2019).

In the test the target is Plasmodium falciparum Hsp70-x (PfHsp70-x), full-length construct aa 25-679 (P. falciparum) (UniProt K7NTP5).

In the case of “J-domain of P. falciparum Hsp40 cochaperone PFE0055c (PFE0055cJ), aa 77-148 (domain or fragment)”, the apparent dissociation constant from titrating the cochaperone in ATP hydrolysis assays (5 μM chaperone, single-site binding fit) is 3 µM.
